# Assay results: PMC11655885, “Structural mechanism of CB1R binding to peripheral and biased inverse agonists” (Nature Communications, 2024)
# Columns and labels:
# CB1R-5M-PGS = CB1R-5M-PGS (Homo sapiens, UniProt P21554); test: Analytical gel filtration test of CNB36 binding to CB1R-5M-PGS; conditions: purified CNB36
# Experimental: For binding tests, 10 μM purified CNB36 was incubated for 1 hr with purified PGS or CB1R-5M-PGS (5 μM). The complex was then centrifuged at 21,130 × g for 15 min at 4 °C to remove large aggregates, and the supernatant was run on an analytical-grade Superdex 200 10/300 Increase column at 0.5 mL/min in CB1 gel filtration buffer. The presence or absence of binding of CNB36 to CB1R-5M-PGS or to PGS alone was assessed by SDS-PAGE analysis of peak fractions.
# [1] = test system: CB1R-5M-PGS over GPR55-PGS; test: Analytical flow cytometry of yeast-displayed CNB36, CB1R-5M-PGS versus GPR55-PGS; type: binding
# Experimental: Supplementary Figure 1. (A-H) Sel ecti on and bi ochemi cal characteri zati on of CNB36
# (A) Overall strategy for nanobody selection and sequence of CNB36.
# (B) FA C S sort of a yeast display nanobody library against Alexa647-labeled CB1-PGS […]
# round of selection that gave rise to CNB36. The indicated gat e (P5) contains the highly fluorescent CB1-PGS single posit ive populat ion, which was then analyzed by sequencing of individual clones.
# (C) Binding of CNB36 to CB1-PGS, read out by size exclusion chromatography and SDS-PA G E . […]
# (D) Assessment of binding of CNB36 to PGS alone, as in C.
# (E) Analytical flow cytometry comparing binding of CNB36-expressing yeast t o Alexa647-labeled CB1-PGS (Y-axis) versus FI TC-labeled GPR55-PGS (X-axis).
# (F) Final sample used for cryo-EM grid preparat ion by size excusion chromatography and […]
# Sequence of CB1R-5M-PGS (P21554 with tags, fused parts or gaps): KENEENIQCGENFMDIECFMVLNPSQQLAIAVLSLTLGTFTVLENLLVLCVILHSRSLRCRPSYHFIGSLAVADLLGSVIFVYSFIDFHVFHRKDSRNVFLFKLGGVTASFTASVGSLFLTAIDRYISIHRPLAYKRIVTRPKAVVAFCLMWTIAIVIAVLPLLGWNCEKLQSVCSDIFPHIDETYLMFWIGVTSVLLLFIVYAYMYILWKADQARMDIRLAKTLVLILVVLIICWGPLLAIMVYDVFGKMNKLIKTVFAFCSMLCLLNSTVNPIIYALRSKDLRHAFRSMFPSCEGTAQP
molecule,measurement,setting,value
"CNB36: nanobody selected from a yeast display library against the CB1R-5M-PGS fusion protein (antibody, V domains shown) VH: QVQLQESGGGLVQAGGSLRLSCAASGTIFGPDVMGWYRQAPGKERELVAGISNGANTYYADSVKGRFTISRDNAKNTVYLQMNSLKPEDTAVYYCAAEVLDYTFAYLYHAYWGQGTQVTVSS",complex formation with CB1R-5M-PGS by size exclusion chromatography,CB1R-5M-PGS,formed a stable complex
same,specificity for purified CB1R-5M-PGS over GPR55-PGS by FACS,[1],high specificity
